Patent publication US11078465B2, “Alcohol dehydrogenase mutant and application thereof in synthesis of diaryl chiral alcohols” (Jiangnan University, priority 2018, dated 2021)

Key:
Type in all cases: biochemical
[1] = Stereoselectivity on different substrates; details: configuration in brackets
Experimental: (§1) In an embodiment of the present disclosure, a chromatographic analysis method is as follows: 100 μL of reactant liquid is taken, 500 μL of ethyl acetate is added, shaking is performed for 1-2 min, centrifugation is performed at 12,000 rpm for 2-5 min, supernatant liquid is taken into a centrifuge tube, after an organic phase naturally volatilizes completely, 500 μL of chromatographically pure ethanol is added, and chiral liquid chromatography and gas chromatography are performed to analyze the transformation rate and the ee value.
(§2) Method for determining optical purity ee:
(§3) As: molar concentration of (S)-CPMA obtained by liquid chromatography; and AR: molar concentration of (R)-CPMA obtained by liquid chromatography.
(§4) The reduction on prochiral carbonyl compounds by the alcohol dehydrogenase mutants obtained in Example 3 was studied. The pro-chiral carbonyl compounds include (4-chlorophenyl)-(pyridin-2-yl)-methanone (CPMK), phenyl-(pyridin-2-yl)-methanone, (4-chlorophenyl)-(phenyl)-methanone, (4-bromophenyl)(phenyl)methanone, (4-fluorophenyl)(phenyl)methanone, (4-methoxyphenyl)-(phenyl)-methanone, (4-nitrophenyl)(phenyl)methanone, 1-(pyridin-2-yl)ethanone, acetophenone, 4′-Chloroacetophenone, 4-chlorophenacyl chloride, ethyl 2-oxo-4-phenylbutanoate (OPBE), ethyl 4-chloro-3-oxobutanoate, and methyl 2-oxo-2-phenylacetate.

[2] = Kinetic analysis of alcohol dehydrogenase and mutants (NADPH oxidation, 340 nm, double reciprocal curve); details: substrate CPMK
Procedure, shortened: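 His-tagged recombinant KpADH (wild type or mutant) purified by nickel affinity, desalted into Tris-HCl pH 7.0. Activity measured at 30° C in 100 mM sodium phosphate pH 7.0 with 1.0 mM NADPH and 1.0 mM CPMK by 340 nm NADPH absorbance decrease; kinetic parameters from double reciprocal plots over varied substrate and coenzyme concentrations.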

[3] = Asymmetric reduction in 20 mL biocatalytic system, conversion
Experimental: as §1
The pure (R)-CPMA were recrystallized from ethyl acetate at 4° C. and gave 99.9% optical purity. […] Besides, the conversion cannot reach 100% with 24 h in the asymmetric reduction of (4-bromophenyl)-(phenyl)-methanone and p-nitrobenzophenone due to the low enzyme activity.

[4] = Stereoselectivity (ee) of CPMK reduction, chiral liquid chromatography
Procedure, shortened: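 Reaction mixture extracted with ethyl acetate, solvent evaporated, residue taken up in ethanol. Chiral LC and GC give conversion and ee, with ee computed from LC molar concentrations of (S)- and (R)-CPMA.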

[5] = Stereoselectivity on different substrates; details: for Stereoselectivity (ee): configuration in brackets
Experimental: as §1, §2, §3, §4
All the products above were recrystallized from ethyl acetate and gave more than 99.9% optical purity.

[6] = Substrate specificity, specific activity
Experimental: Adopting a total reaction system of 200 μL, including: 1.0 mM NADPH, 1.0 mM substrate CPMK and sodium phosphate buffer (PBS, 100 mM, pH 7.0), fully and evenly mixing, maintaining at 30° C. for 2 min, adding an appropriate amount of enzyme solution, and detecting the change in light absorption at 340 nm.
The enzyme activity was calculated by the following formula: Enzyme activity (U)=EW×V×10^3/(6220×I);
in the formula, EW is the change in absorbance at 340 nm in 1 min; V is the volume of a reaction solution in mL; 6220 is the molar extinction coefficient of NADPH in L/mol·cm); and 1 is the optical path distance in cm. One activity unit (U) corresponds to the amount of enzyme required to catalyze the oxidation of 1 μmol NADPH per minute under the above conditions.
as §4

B1: E214I/S237A: isoleucine for glutamate at position 214 and alanine for serine at position 237 of SEQ ID No. 2 (protein)
chain: MSVLISGASGYIAKHIVRVLLEQNYKVIGTVRSQDKADKLLKQYNNPNLSYEIVPEIANLDAFDDIFKKHGKEIKYVIHAASPVNFGAKDLEKDLVIPAINGTKNMFEAIKKYAPDTVERVVMTASYASIMTPHRQNDPTLTLDEETWNPVTEENAYENVFTAYCASKTFAEKEAWKFVKENSDAVKFKLTTIHPSFVFGPQNFDEDVTKKLNITCEIINGLLHAPFDTKVEKTHFAQFIDVRDVAKTHVLGFQKDELINQRLLLCNGAFSQQDIVNVFNEDFPELKGQFPPEDKDTDLNKGVTGCKIDNEKTKKLLAFEFTPFHKTIHDTVYQILHKEGRV
modifications: Protein translated from synthetic DNA
With B1 as the molecule, how does the “Stereoselectivity (ee)” value ([1]; substrate [drawing 13]) read?
The value was 36.8 (R).

And the “Stereoselectivity (ee)” value ([1]; substrate [drawing 14], likely CPMK (values partly match Table 4))?
Its value is 98.4 (R).

And the “Stereoselectivity (ee)” value ([1]; substrate [drawing 15])?
Its value is 52.6 (S).

And the “Stereoselectivity (ee)” value ([1]; substrate [drawing 18])?
The value was 81.8 (S).

What about the Kcat [2] of the same molecule?
The Kcat was 12.06 ± 0.52 s⁻¹.

And the Km [2]?
Its Km is 470 ± 50 µM.

What about the Vmax [2] of the same molecule?
Its Vmax is 18.09 ± 0.78 µM/min/mg.

And the Conversion rate ([3]; 4-chloroacetophenone 100 mM, 1 h)?
The Conversion rate was 59%.

What about the Conversion rate ([3]; 4-chloroacetophenone 100 mM, 2 h) of the same molecule?
The Conversion rate was 72%.

What about the Conversion rate ([3]; 4-chloroacetophenone 100 mM, 3 h) of the same molecule?
Its Conversion rate is 89%.

And the Conversion rate ([3]; 4-chloroacetophenone 100 mM, 4 h)?
The Conversion rate was 85%.

What about the Conversion rate ([3]; 4-chloroacetophenone 100 mM, 6 h) of the same molecule?
The Conversion rate was 97.6%.

And the Conversion rate ([3]; 4-chloroacetophenone 100 mM, 8 h)?
The Conversion rate was 99.8%.

What about the Conversion rate ([3]; 4-chloroacetophenone 100 mM, 12 h) of the same molecule?
Its Conversion rate is greater than 99.9%.

What about the Conversion rate ([3]; 4-chloroacetophenone 100 mM, 24 h) of the same molecule?
The Conversion rate was greater than 99.9%.

And the Conversion rate ([3]; 4-chloroacetophenone 200 mM, 1 h)?
The Conversion rate was 40%.

And the Conversion rate ([3]; 4-chloroacetophenone 200 mM, 2 h)?
The Conversion rate was 52.4%.

And the Conversion rate ([3]; 4-chloroacetophenone 200 mM, 3 h)?
Its Conversion rate is 69.5%.

And the Conversion rate ([3]; 4-chloroacetophenone 200 mM, 4 h)?
The Conversion rate was 76.9%.

What about the Conversion rate ([3]; 4-chloroacetophenone 200 mM, 6 h) of the same molecule?
Its Conversion rate is 88.6%.

What about the Conversion rate ([3]; 4-chloroacetophenone 200 mM, 8 h) of the same molecule?
The Conversion rate was 95.6%.

And the Conversion rate ([3]; 4-chloroacetophenone 200 mM, 12 h)?
Its Conversion rate is 99.2%.

What about the Conversion rate ([3]; 4-chloroacetophenone 200 mM, 24 h) of the same molecule?
Its Conversion rate is 99.7%.

What about the Conversion rate ([3]; 4-chloroacetophenone 500 mM, 1 h) of the same molecule?
The Conversion rate was 28.5%.

What about the Conversion rate ([3]; 4-chloroacetophenone 500 mM, 2 h) of the same molecule?
The Conversion rate was 38.9%.

And the Conversion rate ([3]; 4-chloroacetophenone 500 mM, 3 h)?
Its Conversion rate is 50.0%.

And the Conversion rate ([3]; 4-chloroacetophenone 500 mM, 4 h)?
The Conversion rate was 64.2%.

And the Conversion rate ([3]; 4-chloroacetophenone 500 mM, 6 h)?
Its Conversion rate is 80.9%.

What about the Conversion rate ([3]; 4-chloroacetophenone 500 mM, 8 h) of the same molecule?
Its Conversion rate is 90.2%.

And the Conversion rate ([3]; 4-chloroacetophenone 500 mM, 12 h)?
The Conversion rate was 94.9%.

And the Conversion rate ([3]; 4-chloroacetophenone 500 mM, 24 h)?
Its Conversion rate is 99.2%.

And the “ee value, (R)-CPMA” value ([4]; R configuration product, listed as E2141/S237A)?
The value was 98.3%.

And the e.e. ([4]; product configuration in brackets)?
The e.e. was 98.3 (R).

What about the ee ([5]; substrate 4-chloroacetophenone, (R)) of the same molecule?
The ee was 99.4%.

And the “Stereoselectivity (ee)” value ([5]; substrate [drawing 10], acetophenone)?
Its value is 9.69 (R).

What about the “Stereoselectivity (ee)” value ([5]; substrate [drawing 11], 4-chloroacetophenone) of the same molecule?
The value was 99.4 (R).

What about the “Stereoselectivity (ee)” value ([5]; substrate [drawing 12], 4-chlorobenzoyl chloride) of the same molecule?
Its value is 76.4 (R).

What about the “Stereoselectivity (ee)” value ([5]; substrate [drawing 16], (4-bromophenyl)-(phenyl)-methanone) of the same molecule?
Its value is 93.4 (S).

What about the “Stereoselectivity (ee)” value ([5]; substrate [drawing 17], p-nitrobenzophenone) of the same molecule?
Its value is 86.5 (S).

What about the specific activity ([6]; substrate [drawing 1]) of the same molecule?
Its specific activity is 0.09 U/mg.

What about the specific activity ([6]; substrate [drawing 2]) of the same molecule?
Its specific activity is 0.08 U/mg.

What about the specific activity ([6]; substrate [drawing 3]) of the same molecule?
Its specific activity is 1.42 U/mg.

And the specific activity ([6]; substrate [drawing 4])?
The specific activity was 2.94 U/mg.

And the specific activity ([6]; substrate [drawing 5])?
The specific activity was 12.38 U/mg.

And the specific activity ([6]; substrate [drawing 6], 4-chlorophenacyl chloride)?
The specific activity was 30.09 U/mg.

And the specific activity ([6]; substrate [drawing 7])?
The specific activity was 21.73 U/mg.

What about the specific activity ([6]; substrate [drawing 8]) of the same molecule?
The specific activity was 30.28 U/mg.

And the specific activity ([6]; substrate [drawing 9], ethyl 4-chloro-3-oxobutanoate)?
Its specific activity is 5.58 U/mg.
